Patent US11994512B2, “Single-cell genomic methods to generate ex vivo cell systems that recapitulate in vivo biology with improved fidelity” (Massachusetts Institute of Technology, priority 2018, dated 2024)

B1: Q571E4 (protein, UniProt Q571E4 1-520, looked up)
chain: MAACTAAQQLLLVLSALGLLAAGAPQPPNIVLLLMDDMGWGDLGVNGEPSRETPNLDRMAAEGMLFPSFYSANPLCSPSRAALLTGRLPIRNGFYTTNAHARNAYTPQEIMGGIPNSEHLLPELLKKAGYTNKIVGKWHLGHRPQFHPLKHGFDEWFGSPNCHFGPYDNKAKPNIPVYRDWEMVGRFYEEFPINRKTGEANLTQLYTQEALDFIQTQHARQSPFFLYWAIDATHAPVYASRQFLGTSLRGRYGDAVREIDDSVGKILSLLQNLGISKNTFVFFTSDNGAALISAPNEGGSNGPFLCGKQTTFEGGMREPAIAWWPGHIAAGQVSHQLGSIMDLFTTSLSLAGLKPPSDRVIDGLDLLPTMLKGQMMDRPIFYYRGNTLMAVTLGQYKAHLWTWTNSWEEFTQGTDFCPGQNVSGVTTHTQEEHTELPLIFHLGRDPGERFPLSFHSDEYQDALSRTTQVVQEHQKSLVPGQPQLNVCNQAVMNWAPPGCEKLGKCLTPPESVPEKCFWAH
modifications: full-length
B2: Q4VAH7 (protein, UniProt Q4VAH7 1-463, looked up)
chain: MGQDAFMELLRSMVGLSLCKIHLLLIAGSCLGLKVTVPSYTVHGIRGQALYLPVHYGFHTPASDIQIIWLFERSHTMPKYLLGSVNKSVVPDLEYQHKFTMMPPNASLLINPLQFTDEGNYIVKVNIQGNGTLSASQKIQVTVDDPVMKPMVQFHPASGAVEYVGNITLTCQVEGGTRLVYQWRKSGKPISINSSHSFSPQNNTLWIVPVTKEDIGNYTCLVSNPVSEMESDIIMPTIYYGPYGLQVNSDKGLKVGEVFTVDLGEAVLFDCSADSYPPNTYSWIQRSDNTTHVIKHGPHLEVASEKVAQKTADYVCCAYNNITGRRDETRFTVIITSVGLEKLAQRGKSLSPLASITGISLFLIISMCLLFLWKKYQPYKAIRQKLEGRPESEYRKAQTFSGHEDALSDFGIYEFVTFPDASGVSRMSSRSSPASDGVTGQDIHGTIYEVIQHIPEQQQENTE
modifications: full-length
B3: Q52KI8 (protein, UniProt Q52KI8 1-946, looked up)
chain: MDAGFFRGTSAEQDNRFSNKQKKLLKQLKFAECLEKKVDMSKVNLEVIKPWITKRVTEILGFEDDVVIEFIFNQLEVKNPDSKMMQINLTGFLNGKNAREFMGELWPLLLSAQENIAGIPSAFLELKKEEIKQRQIEQEKLASLKKQDEDKDKRDKEEKESSREKRERSRSPRRRKSRSPSPRRRSSPVRRERKRSHSRSPRHRTKSRSPSPAPEKKEKSPELPEPSVRMKDSSVQEATSTSDILKAPKPEPVPEPKEPSPEKNSKKEKEKTRPRSRSRSKSRSRTRSRSPSHTRPRRRHRSRSRSYSPRRRPSPRRRPSPRRRTPPRRMPPPPRHRRSRSPGRRRRRSSASLSGSSSSSSSSRSRSPPKKPPKRTSSPPRKTRRLSPSASPPRRRHRPSSPATPPPKTRHSPTPQQSNRTRKSRVSVSPGRTSGKVTKHKGTEKRESPSPAPKPRKVELSESEEDKGSKMAAADSVQQRRQYRRQNQQSSSDSGSSSTSEDERPKRSHVKNGEVGRRRRHSPSRSASPSPRKRQKETSPRMQMGKRWQSPVTKSSRRRRSPSPPPARRRRSPSPAPPPPPPPPPPRRRRSPTPPPRRRTPSPPPRRRSPSPRRYSPPIQRRYSPSPPPKRRTASPPPPPKRRASPSPPPKRRVSHSPPPKQRSPTVTKRRSPSLSSKHRKGSSPGRSTREARSPQPNKRHSPSPRPRAPQTSSPPPVRRGASASPQGRQSPSPSTRPIRRVSRTPEPKKIKKTAMATQRNIRRVSKSPKADSLSRAASPSPQSVRRVSSSRSVSGSPEPAAKKPPAPPSPVQSQSPSTNWSPAVPAKKAKSPTPSLSPARNSDQEGGGKKKKKKKDKKHKKDKKHKKHKKHKKEKAVTIATPATAAPAAVSAATTTSAQEEPAAAPEPRKETESEAEDDNLDDLERHLREKALRSMRKAQVSPQS
modifications: full-length
B4: Q4V9W2 (protein, UniProt Q4V9W2 1-153, looked up)
chain: MAVPGCNKDNVRAGCRKCGYPGHLTFECRNFLRVDPKRDIVLDVSSTSSEDSDEENEELNKLQALQEKRINEEEEKKKEKSREKIKLKKRRKRSYSSATEEDSAKQKKQKYQKKEKKKEKKNKSKKGKHHKKEKKKRKKEKRSSPYHSELTKK
modifications: full-length
B5: Q3UYK3 (protein, UniProt Q3UYK3 1-1264, looked up)
chain: MWVNPEEVLLANALWITERANPYFILQRRKGHGGDGGGGGGLAGLLVGTLDVVLDSSARVAPYRILYQTPDSLVYWTIACGGSRKEVTEHWEWLEQNLLQTLSIFENENDVTTFVRGKIQGIIAEYNKINDVKEDEDTEKFKEAIVKFHRLFGMPEEEKLVNYYSCSYWKGRVPRQGWMYLSINHLCFSSFLMGREAKLVIRWVDITQLEKNATLLLPDMIKVSTRSSEHFFSVFLNINETFKLMEQLANIAMRQLLDNEGFEQDRSLPKLKKKSPKKVSALKRDLDARAKSERYRALFRLPKDEKLDGHTDCTLWTPFNKMHILGQMFVSTNYICFTSKEENLCSLIIPLREVTIVEKADSCSVLPSPLSISTRNRMTFLFANLKDRDFLVQRISDFLQQTTSRIYSDKEFSGSCNSSDDEVYSRPSSLVSSSPQRSTSSDADGERPFNLNGNSVPTATQTLMTMYRRRSPEEFNPKLAKEFLKEQAWKIHFAEYGQGICMYRTEKTRELVLKGIPESMRGELWLLLSGAINEKATHPGYYEGLVEKSMGKYNLATEEIERDLHRSLPEHPAFQNEMGIAALRRVLTAYAFRNPNIGYCQAMNIVTSVLLLYAKEEEAFWLLVALCERMLPDYYNTRVVGALVDQGVFEELARDYVPQLYDCMQDLGVISTISLSWFLTLFLSVMPFESAVVVVDCFFYEGIKVIFQLALAVLDANVDKLLNCKDDGEAMTVLGRYLDSVTNKDSTLPPIPHLHSLLSDDVGPYPAVDIFRLIGTSYEKFGTIRADLIEQMRFKQRLKVIQTLEDTTKRNVVRTIVTETSFTIDELEELYALFKAEHLTSCYWGGSSNALDRHDPSLPYLEQYRIDFEQFKGMFVLLFPWACGTHSDVLASRLFQLLDENGDSLINFREFVSGLSAACHGDLTEKLKLLYKMHVLPEPSCDQDEPDSAFEATQYFFEDITPECTHVVGLDSRGKQSADDGFVTVSLKQDRGKRANSQENRNYLKLWTAENKSKSKTAKDLPKLNQGQFIELCKTMYNMFSEDPNEQELYHATAAVTSLLLEIGEVGKFFITQPAKEDAVPGPPCGQAIPGMLFPKKGSSQSYVVESTEPLTASLAVDSEEHSLGGQMEDIKLEDSSPRDNGACSSMLISDDDTKDDSSMSSYSVLSAGSHEEDKLHCEDIGEDTVLVRSSQGRATLPRSSSLDRDWAITFEQFLASLLTEPALVRYFDKPVCMMARVTSAKNIRMMGKPLTSASDYEISALSG
modifications: full-length
B6: Q3V3I2 (protein, UniProt Q3V3I2 1-354, looked up)
chain: MGSGISSESKESARRSKELEKKLQEDAERDARTVKLLLLGAGESGKSTIVKQMKIIHKNGYSKQECMEFKAVIYSNTLQSILAIVKAMATLGIDYVNPRSREDQEQLHSMANTLEDGDMTPQLAEIIKRLWGDPGIQACFERASEYQLNDSAAYYLNDLDRLTAPGYVPNEQDVLHSRVKTTGIIETQFSFKDLNFRMFDVGGQRSERKKWIHCFEGVTCIIFCAALSAYDMVLVEDEEVNRMHESLHLFNSICNHKYFATTSIVLFLNKKDLFQEKVAKVHLSICFPEYTGPNTFEDAGNYIKNQFLDLNLKKEDKEIYSHMTCATDTQNVKFVFDAVTDIIIKENLKDCGLF
modifications: full-length
B7: Q3V1V3 (protein, UniProt Q3V1V3 1-845, looked up)
chain: MSSKQEIMDDQRFRRVSKDPRFWEMPEKERKVKIDKRFRAMFHDKKFKLNYAVDKRGRPISHSTTEDLKRFYDLSDSDSDLSDEESKILSQKKAKQKKKQTKKEAKSIEKPIEEKKKETKKTDQKDSINKHDLNNSERVQKMKNSQKPQKIDSEISPKKDNEEFLQNKKKKRGTTDLSVEALPKGKLRTKDSSTSEMVKSSTMSSSKAKREKQSVVPVIMAKDNDGKMPDEDALEEDSDSASELGSDEESEDEIISDGKTSADEDESEEEDEEEEEDSEEEEEEEEEDESDSGPDLARGKGNVETSSEDEDDLADLFPEEPGFEHAWRELDKDAPRADEITRRLAVCNMDWDRLKAKDLLALFNSFKPKGGVVFSVKIYPSEFGKERMKEEQVQGPVELLSIPEDAPEKDWASREKLRDYQFKRLKYYYAVAECDSPETASKIYEDCDGLEFESSCSFIDLRFIPDDITFDDEPKDVALEVDLTAYKPKYFTSAAMGTSTVEITWDETDHERITTLNRKFKKDELLDMDFQAYLASSSEDEEEVEEAPEGEEGVNIGEDGKTKKSQKDDEEQIAKYRQLLQVIQEKEKKGKENDMEMEIKWVPGLKESAEEMVKNKLEGKDKLTPWEQFLEKKKEKKRLKKKQKALAEEDSEDELPSDVDFNDPYFAEEVKKIGIKKKSMKSAKDSASSEEETDLEKQKAEMALLVMDEEEDSKKHFNYDKIVEHQNLSKKKKKQLMKKKELVEDDFEVNVSDARFQAMYTSHLFNLDPSDPNFKKTKAMEKILEEKARHRERKEELLIQAVERAQQDTGKPTQKQPMDPALSMLIKSVKNKTEQFQARKKQRVK
modifications: full-length

test system: intracellular proteome of ENR+CD and ENR organoids; test: LC-MS/MS TMT proteomics of ENR+CD versus ENR organoids; assay type: cell-based, C57BL/6 mice; settings: ENR+CD versus ENR organoids, sample pairs in aggregate (n=4, 2 technical replicates from two biological donors)

| Molecule | Average logFC |
| --- | --- |
| B1 | 1.207 |
| B2 | 1.418 |
| B3 | −1.144 |
| B4 | −1.36 |

same assay, conditions: protein abundance ratio ENR+CD versus ENR organoids, sample pair M1-1; LC-MS/MS TMT proteomics

| Molecule | M1-1 Log2 Median Normalized |
| --- | --- |
| B1 | 1.473 |
| B2 | 1.047 |
| B3 | −1.036 |
| B4 | −1.902 |

same assay, conditions: protein abundance ratio ENR+CD versus ENR organoids, sample pair M1-2; LC-MS/MS TMT proteomics

| Molecule | M1-2 Log2 Median Normalized |
| --- | --- |
| B1 | 0.565 |
| B2 | 1.639 |
| B3 | −0.819 |
| B4 | −0.824 |

same assay, conditions: protein abundance ratio ENR+CD versus ENR organoids, sample pair M2-1; LC-MS/MS TMT proteomics

| Molecule | M2-1 Log2 Median Normalized |
| --- | --- |
| B1 | 1.3465 |
| B2 | 1.2475 |
| B3 | −1.2825 |
| B4 | −1.2515 |

same assay, conditions: protein abundance ratio ENR+CD versus ENR organoids, sample pair M2-2; LC-MS/MS TMT proteomics

| Molecule | M2-2 Log2 Median Normalized |
| --- | --- |
| B1 | 1.206 |
| B2 | 1.739 |
| B3 | −1.437 |
| B4 | −1.464 |

same assay, conditions: protein abundance, ENR+CD versus ENR organoids; aggregate of the four sample pairs

| Molecule | Average logFC |
| --- | --- |
| B5 | −1.25 |
| B6 | −1.949 |
| B7 | −1.244 |

same assay, conditions: protein abundance, ENR+CD versus ENR organoids; replicate M1-1; log2 ratio

| Molecule | M1-1 Log2 Median Normalized |
| --- | --- |
| B5 | −0.639 |
| B6 | −1.715 |
| B7 | −1.45 |

same assay, conditions: protein abundance, ENR+CD versus ENR organoids; replicate M1-2; log2 ratio

| Molecule | M1-2 Log2 Median Normalized |
| --- | --- |
| B5 | −1.148 |
| B6 | −1.092 |
| B7 | −0.805 |

same assay, conditions: protein abundance, ENR+CD versus ENR organoids; replicate M2-1; log2 ratio

| Molecule | M2-1 Log2 Median Normalized |
| --- | --- |
| B5 | −1.5035 |
| B6 | −2.2685 |
| B7 | −0.9155 |

same assay, conditions: protein abundance, ENR+CD versus ENR organoids; replicate M2-2; log2 ratio

| Molecule | M2-2 Log2 Median Normalized |
| --- | --- |
| B5 | −1.709 |
| B6 | −2.719 |
| B7 | −1.805 |

same assay, conditions: up = enriched in ENR+CD, down = enriched in ENR; FDR<0.05 and log fold change cut-off

| Molecule | change |
| --- | --- |
| B1 | up |
| B5 | down |
| B2 | up |
| B6 | down |
| B7 | down |
| B3 | down |
| B4 | down |
